From patent publication US20040001835A1, “Prevention or treatment of cancer using integrin alphavbeta3 antagonists in combination with other agents” (MedImmune, Inc., priority 2002, published 2004)

Key:
[1] = biological target: T1, αvβ3 expressed on placenta (placental trophoblasts) (Mus musculus, UniProt O54890); assay: Immunohistochemical staining of placental trophoblasts; format: binding; conditions: frozen thin sections, antibody 10 μg/ml
T1 construct: from tissue; host or cells: placenta (frozen sections)
T1 sequence (O54890 26-787): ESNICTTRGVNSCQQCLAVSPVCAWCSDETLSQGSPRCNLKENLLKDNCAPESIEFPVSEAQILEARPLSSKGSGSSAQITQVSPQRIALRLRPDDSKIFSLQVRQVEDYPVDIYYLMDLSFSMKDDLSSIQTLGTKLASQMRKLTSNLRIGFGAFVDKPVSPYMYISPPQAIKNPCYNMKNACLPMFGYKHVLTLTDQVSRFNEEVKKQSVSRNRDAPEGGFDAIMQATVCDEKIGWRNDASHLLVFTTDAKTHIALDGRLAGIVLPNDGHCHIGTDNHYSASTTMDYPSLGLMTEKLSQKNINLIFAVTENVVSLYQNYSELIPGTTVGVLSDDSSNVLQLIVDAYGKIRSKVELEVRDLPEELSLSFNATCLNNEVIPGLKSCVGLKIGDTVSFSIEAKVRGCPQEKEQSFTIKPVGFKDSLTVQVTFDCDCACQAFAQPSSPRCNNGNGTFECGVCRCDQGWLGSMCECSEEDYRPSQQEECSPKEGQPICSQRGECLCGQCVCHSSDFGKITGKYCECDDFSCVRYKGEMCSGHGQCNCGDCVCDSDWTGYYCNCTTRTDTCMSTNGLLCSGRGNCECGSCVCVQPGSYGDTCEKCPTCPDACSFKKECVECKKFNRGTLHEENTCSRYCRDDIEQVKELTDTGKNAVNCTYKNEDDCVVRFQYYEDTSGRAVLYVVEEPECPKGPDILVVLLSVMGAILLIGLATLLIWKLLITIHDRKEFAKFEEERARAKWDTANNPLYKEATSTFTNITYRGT
T1 sequence (P43406 31-885 partner limits assumed): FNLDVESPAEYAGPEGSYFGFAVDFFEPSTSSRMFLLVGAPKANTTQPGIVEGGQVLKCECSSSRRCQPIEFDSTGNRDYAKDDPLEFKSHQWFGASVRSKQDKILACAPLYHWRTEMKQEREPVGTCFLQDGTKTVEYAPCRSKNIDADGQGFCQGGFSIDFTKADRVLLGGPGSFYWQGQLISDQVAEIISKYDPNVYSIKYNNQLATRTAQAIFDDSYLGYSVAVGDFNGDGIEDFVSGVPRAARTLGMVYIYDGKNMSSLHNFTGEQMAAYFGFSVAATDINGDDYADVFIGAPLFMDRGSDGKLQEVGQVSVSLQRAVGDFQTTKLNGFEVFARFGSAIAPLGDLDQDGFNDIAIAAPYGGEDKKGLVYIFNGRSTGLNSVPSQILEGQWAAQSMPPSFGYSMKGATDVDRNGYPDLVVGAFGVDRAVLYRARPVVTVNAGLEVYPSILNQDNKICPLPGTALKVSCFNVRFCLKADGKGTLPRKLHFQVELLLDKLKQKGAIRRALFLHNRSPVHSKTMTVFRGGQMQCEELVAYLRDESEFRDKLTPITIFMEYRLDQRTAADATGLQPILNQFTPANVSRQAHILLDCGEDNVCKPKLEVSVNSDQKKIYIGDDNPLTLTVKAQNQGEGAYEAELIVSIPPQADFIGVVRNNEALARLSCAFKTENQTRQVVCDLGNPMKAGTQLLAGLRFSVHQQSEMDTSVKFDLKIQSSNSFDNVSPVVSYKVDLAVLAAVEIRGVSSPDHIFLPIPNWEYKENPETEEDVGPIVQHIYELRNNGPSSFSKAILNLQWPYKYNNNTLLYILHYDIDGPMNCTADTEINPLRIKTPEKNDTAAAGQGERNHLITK
T1 sequence (P43406 887-1044 partner limits assumed): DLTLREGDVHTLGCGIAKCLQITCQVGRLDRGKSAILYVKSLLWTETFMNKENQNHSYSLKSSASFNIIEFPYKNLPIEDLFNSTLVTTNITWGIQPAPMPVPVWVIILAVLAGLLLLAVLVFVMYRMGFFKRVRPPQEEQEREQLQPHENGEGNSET
Protocol: (§1) Table 3. Immunohistochemical staining of placental trophoblasts. Placental tissue, a rich source of αvβ3, was collected either immediately after parturition or from freshly-sacrificed, late-term pregnant animals. Tissue fragments, approximately 1 cm^3, were frozen in OCT, and thin sections were stained with monoclonal antibodies (10 μg/ml) at Sierra Biomedical (Sparks, Nev.). Vitaxin® recognized αvβ3 expressed on human, monkey, guinea pig, hamster and rabbit placenta, while […] with human and monkey αvβ3. […] ND, not done.

[2] = system: αvβ3 expressed on placenta (placental trophoblasts); assay: as above; format: binding; conditions: frozen thin sections, antibody 10 μg/ml
Protocol: as §1

mouse Integrin αVβ3 = biological target: T2, mouse Integrin αVβ3 (Mus musculus, UniProt O54890); assay: Binding to mouse Integrin αVβ3
T2 sequence (O54890 26-787): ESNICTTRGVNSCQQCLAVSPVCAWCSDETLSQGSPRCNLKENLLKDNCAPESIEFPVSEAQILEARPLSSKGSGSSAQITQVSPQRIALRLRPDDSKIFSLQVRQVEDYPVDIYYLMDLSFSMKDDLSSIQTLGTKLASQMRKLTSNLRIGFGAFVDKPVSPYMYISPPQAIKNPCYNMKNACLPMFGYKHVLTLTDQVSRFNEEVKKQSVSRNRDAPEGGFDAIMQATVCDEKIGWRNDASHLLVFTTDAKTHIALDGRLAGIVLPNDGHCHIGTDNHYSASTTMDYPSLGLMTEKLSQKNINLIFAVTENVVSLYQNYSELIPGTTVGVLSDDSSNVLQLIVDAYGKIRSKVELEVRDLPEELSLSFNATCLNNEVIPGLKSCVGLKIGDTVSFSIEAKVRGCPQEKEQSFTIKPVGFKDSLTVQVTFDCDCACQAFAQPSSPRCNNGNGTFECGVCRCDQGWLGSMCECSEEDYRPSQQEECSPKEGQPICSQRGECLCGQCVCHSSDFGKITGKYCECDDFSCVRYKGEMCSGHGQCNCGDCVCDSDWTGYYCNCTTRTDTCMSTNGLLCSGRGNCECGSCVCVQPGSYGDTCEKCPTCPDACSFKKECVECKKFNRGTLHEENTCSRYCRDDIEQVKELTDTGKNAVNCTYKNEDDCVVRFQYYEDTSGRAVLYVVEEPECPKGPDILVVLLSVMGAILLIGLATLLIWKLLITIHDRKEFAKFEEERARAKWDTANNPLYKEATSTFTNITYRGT
T2 sequence (P43406 31-885 partner limits assumed): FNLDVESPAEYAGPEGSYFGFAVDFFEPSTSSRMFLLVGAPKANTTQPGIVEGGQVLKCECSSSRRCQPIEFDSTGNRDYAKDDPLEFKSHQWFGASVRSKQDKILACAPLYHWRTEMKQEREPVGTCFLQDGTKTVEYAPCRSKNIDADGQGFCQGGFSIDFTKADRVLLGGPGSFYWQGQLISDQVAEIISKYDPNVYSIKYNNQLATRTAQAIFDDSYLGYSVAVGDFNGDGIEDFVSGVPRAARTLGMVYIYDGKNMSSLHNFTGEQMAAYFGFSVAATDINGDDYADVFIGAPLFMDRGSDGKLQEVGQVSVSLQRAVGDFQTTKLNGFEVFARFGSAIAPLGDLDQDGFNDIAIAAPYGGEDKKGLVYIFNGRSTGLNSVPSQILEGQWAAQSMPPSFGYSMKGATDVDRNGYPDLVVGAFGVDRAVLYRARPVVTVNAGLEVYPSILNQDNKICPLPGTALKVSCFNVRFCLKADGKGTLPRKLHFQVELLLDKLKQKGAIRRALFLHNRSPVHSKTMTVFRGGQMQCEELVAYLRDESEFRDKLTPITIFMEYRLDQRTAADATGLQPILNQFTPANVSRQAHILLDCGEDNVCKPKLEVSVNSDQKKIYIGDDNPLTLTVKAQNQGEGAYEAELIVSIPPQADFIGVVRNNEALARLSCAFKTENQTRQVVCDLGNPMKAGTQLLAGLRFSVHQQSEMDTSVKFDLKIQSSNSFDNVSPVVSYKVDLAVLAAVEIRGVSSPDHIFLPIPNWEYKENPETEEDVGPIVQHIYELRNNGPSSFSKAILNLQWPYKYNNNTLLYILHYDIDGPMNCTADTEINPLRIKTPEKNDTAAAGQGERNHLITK
T2 sequence (P43406 887-1044 partner limits assumed): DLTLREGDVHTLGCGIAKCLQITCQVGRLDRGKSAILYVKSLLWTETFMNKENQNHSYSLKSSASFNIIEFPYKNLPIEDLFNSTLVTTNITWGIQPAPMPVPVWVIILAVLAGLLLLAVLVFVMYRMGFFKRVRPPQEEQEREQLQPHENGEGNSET

Staining of Placental Trophoblasts [1]: Negative
binding to mouse Integrin αVβ3 (mouse Integrin αVβ3): do not bind
B1: Vitaxin®: humanized blocking monoclonal antibody that binds Integrin αVβ3 (MEDI-522, MedImmune); humanized and optimized version of LM609 (antibody, chains of the INN, looked up, V domains shown)
VH: QVQLVESGGGVVQPGRSLRLSCAASGFTFSSYDMSWVRQAPGKGLEWVAKVSSGGGSTYYLDTVQGRFTISRDNSKNTLYLQMNSLRAEDTAVYYCARHLHGSFASWGQGTTVTVSS
VL: EIVLTQSPATLSLSPGERATLSCQASQSISNFLHWYQQRPGQAPRLLIRYRSQSISGIPARFSGSGSGTDFTLTISSLEPEDFAVYYCQQSGSWPLTFGGGTKVEIK
Staining of Placental Trophoblasts ([2]; Cynomolgus monkey placenta): recognized
Staining of Placental Trophoblasts ([2]; Guinea pig placenta): recognized
Staining of Placental Trophoblasts ([2]; Hamster placenta): recognized
Staining of Placental Trophoblasts ([2]; Rabbit placenta): recognized
